The text below walks through data of the Immune Epitope Database (IEDB).

Experiment [1] concerns the target HLA-A*02:01. The experiment can be described thus: IEDB peptide-MHC binding, cellular MHC/competitive/fluorescence; ≥ and ≤ were set here for values at or beyond the usual limits of such assays. Conditions: source organism: Vaccinia virus WR.
For experiment [2], the target named is HLA-A*02:06. Described as above. The following applies: source organism: Vaccinia virus WR.
The next experiment has as its target HLA-A*02:03. Described as above.
The next experiment addresses HLA-A*02:02. The description is as above.
In experiment [3] the target is HLA-A*68:02. Put plainly: IEDB peptide-MHC binding, purified MHC/competitive/radioactivity; ≥ and ≤ were set here for values at or beyond the usual limits of such assays. Conditions: source organism: Vaccinia virus WR.
Experiment [4] deals with HLA-A*68:02. Put plainly: IEDB peptide-MHC binding, cellular MHC/competitive/fluorescence; ≥ and ≤ were set here for values at or beyond the usual limits of such assays.
For experiment [5], the target named is HLA-A*02:06. The experiment can be described thus: IEDB peptide-MHC binding, purified MHC/competitive/radioactivity; ≥ and ≤ were set here for values at or beyond the usual limits of such assays.
The target of experiment [6] is HLA-A*02:01. The description is as above.
[7] abbreviates: source organism: Vaccinia virus WR.
The mark [8] stands for this setting: source organism: Hepacivirus hominis.

As to ATCALVSDCA, the half-maximal inhibitory concentration (IC50) with HLA-A*02:01 [1] came to 55.8 µM; with HLA-A*02:06 [2] it was 9.14 µM; in the experiment with HLA-A*02:03 (setting [7]) it was 23.4 µM; with HLA-A*02:02 (setting [7]) it was 34.7 µM; with HLA-A*68:02 [3] it was 18 nM.
The corresponding values for AVYFKAKWLT are 8.89 µM, 8.71 µM, 8.93 µM, 27.2 µM and 605 nM.
The like results for CTEETKRNI were, in that order, at least 70 µM, at least 70 µM, at least 70 µM, at least 70 µM and 3920 nM.
The corresponding values for CVDIFTEGKI are 43.2 µM, 20.9 µM, 17.5 µM, at least 70 µM and 1320 nM.
With CVKYLLDNDI, the IC50 with HLA-A*02:01 [1] turned out to be 13 µM; in the experiment with HLA-A*02:06 [2], 7.58 µM; with HLA-A*02:03 (setting [7]) it was 5.67 µM; in the experiment with HLA-A*02:02 (setting [7]), 31.8 µM; in the experiment with HLA-A*68:02 [3], 1980 nM.
The like results for DAIKSNNHLT were, in that order, at least 70 µM, at least 70 µM, 17.9 µM, 27.4 µM and 768 nM.
The corresponding values for DTCGASINIT are 42.6 µM, at least 70 µM, at least 70 µM, 23.6 µM and 1930 nM.
The corresponding values for DTDIVNNFI are 26.2 µM, 15.7 µM, 19.4 µM, 9.32 µM and 628 nM.
On to DTDIVNNFIT, for which the IC50 turned out to be 7.86 µM with HLA-A*02:01 [1]; 5.59 µM in the experiment with HLA-A*02:03 (setting [7]); 7.68 µM in the experiment with HLA-A*68:02 [4] (setting [7]); 8.59 µM with HLA-A*02:02 (setting [7]); 2310 nM in the experiment with HLA-A*02:06 [5] (setting [7]).
Turning to DTEFINKFL, the IC50 in the experiment with HLA-A*02:01 [1] was at least 70 µM; in the experiment with HLA-A*02:06 [2], at least 70 µM; with HLA-A*02:03 (setting [7]), 42.7 µM; in the experiment with HLA-A*02:02 (setting [7]), 7.42 µM; with HLA-A*68:02 [3], 117 nM.
For the sequence DTIESAKTKI, the IC50 with HLA-A*02:01 [1] was 58.9 µM; with HLA-A*02:06 [2] it was at least 70 µM; in the experiment with HLA-A*02:03 (setting [7]), 50.5 µM; with HLA-A*02:02 (setting [7]), 47.9 µM; with HLA-A*68:02 [3], 570 nM.
The like results for DTSPTKRCRL were, in that order, at least 70 µM, 44.6 µM, 37.1 µM, 12.2 µM and 1990 nM.
The like results for DVEKRILNTI were, in that order, 55.1 µM, 10.8 µM, 12.6 µM, 21 µM and 4400 nM.
The corresponding values for DVIKSISSI are 32 µM, 15 µM, 7.52 µM, 63.8 µM and 504 nM.
Regarding DVNSVQFSI, the IC50 in the experiment with HLA-A*02:01 [1] stood at 11.5 µM; with HLA-A*02:06 [2] it was 16.9 µM; with HLA-A*02:03 (setting [7]) it was 16.2 µM; in the experiment with HLA-A*02:02 (setting [7]), 10.4 µM; with HLA-A*68:02 [3], 26 nM.
The like results for DVSVSVGTGI were, in that order, at least 70 µM, 22.2 µM, 5.83 µM, 17.9 µM and 424 nM.
The like results for EAFETQSGA were, in that order, at least 70 µM, at least 50 µM, at least 70 µM, at least 70 µM and 104 nM.
The corresponding values for EALYYVHSL are 17.6 µM, 14.8 µM, 5.77 µM, 14.2 µM and 347 nM.
With EIVKNIREGT, the IC50 in the experiment with HLA-A*02:01 [1] was 11.8 µM; in the experiment with HLA-A*02:06 [2] it was 60.7 µM; with HLA-A*02:03 (setting [7]), 8.53 µM; in the experiment with HLA-A*02:02 (setting [7]), 28.5 µM; with HLA-A*68:02 [3], 431 nM.
The corresponding values for ELPVKTDIV are 11.1 µM, 11.5 µM, 8.06 µM, 23 µM and 3590 nM.
The like results for ETAIRAGYSI were, in that order, 5.99 µM, 17.8 µM, 29.3 µM, 25.8 µM and 134 nM.
Consider FANVISKIYT, for which the IC50 was 15.7 µM with HLA-A*02:01 [1]; 5.31 µM with HLA-A*02:03 (setting [7]); 5.49 µM in the experiment with HLA-A*68:02 [4] (setting [7]); 7.79 µM in the experiment with HLA-A*02:02 (setting [7]); 1660 nM in the experiment with HLA-A*02:06 [5] (setting [7]).
The corresponding values for FIDRGSIKI are 6.95 µM, 12.2 µM, 48 µM, 9.72 µM and 4030 nM.
Consider FVVNGHTCM, for which the IC50 was determined as 22.3 µM with HLA-A*02:01 [1]; 5.9 µM with HLA-A*02:03 (setting [7]); 7.46 µM with HLA-A*68:02 [4] (setting [7]); 6.64 µM with HLA-A*02:02 (setting [7]); 1810 nM with HLA-A*02:06 [5] (setting [7]).
The like results for GVLPEETNI were, in that order, 17.3 µM, 20.4 µM, 12 µM, 17.3 µM and 573 nM.
The like results for IAGLKIEEI were, in that order, 23.2 µM, 6.09 µM, 27.5 µM, 7.66 µM and 1970 nM.
IAVSVYGAIT: the IC50 came out at 14.4 µM in the experiment with HLA-A*02:06 [2], 9.24 µM in the experiment with HLA-A*02:03 (setting [7]), 7.89 µM with HLA-A*02:02 (setting [7]) and 4380 nM in the experiment with HLA-A*68:02 [3].
Consider IIDLLLPST, for which the IC50 is 5.65 µM in the experiment with HLA-A*02:01 [1]; 10.3 µM with HLA-A*02:03 (setting [7]); at least 70 µM with HLA-A*68:02 [4] (setting [7]); 15.1 µM in the experiment with HLA-A*02:02 (setting [7]); 1120 nM with HLA-A*02:06 [5] (setting [7]).
The corresponding values for ITLILSNKL are 6.79 µM, 17.1 µM, 8.73 µM, 5.11 µM and 396 nM.
The like results for KTEHCDDFM were, in that order, 16.1 µM, 18.1 µM, at least 70 µM, 6.5 µM and 2520 nM.
In the case of KTNTKHCPKI, the IC50 was determined as 36.5 µM with HLA-A*02:01 [1]; 10.9 µM with HLA-A*02:03 (setting [7]); 20 µM with HLA-A*68:02 [4] (setting [7]); 33.8 µM with HLA-A*02:02 (setting [7]); 234 nM with HLA-A*02:06 [5] (setting [7]).
The corresponding values for KTPVIVVPVI are 12 µM, 6.2 µM, 36.5 µM, 9.09 µM and 1890 nM.
The corresponding values for KVEKYLPEVI are 8.62 µM, 12.4 µM, at least 70 µM, 12.1 µM and 734 nM.
For KVIKLVKSLV, the IC50 stood at 24.9 µM with HLA-A*02:01 [1]; 13.4 µM with HLA-A*02:03 (setting [7]); 16.2 µM with HLA-A*68:02 [4] (setting [7]); 14.3 µM with HLA-A*02:02 (setting [7]); 2140 nM with HLA-A*02:06 [5] (setting [7]).
In the case of LALWDSNFFT, the IC50 with HLA-A*02:03 (setting [7]) is 19.9 µM; with HLA-A*68:02 [4] (setting [7]), at least 70 µM; in the experiment with HLA-A*02:02 (setting [7]), 11 µM; in the experiment with HLA-A*02:01 [6] (setting [7]), 815 nM; with HLA-A*02:06 [5] (setting [7]) it was 1250 nM.
Turning to LLLGLLLLCV, the IC50 with HLA-A*02:03 (setting [8]) was found to be 10.3 µM; with HLA-A*68:02 [4] (setting [8]) it was 57.9 µM; in the experiment with HLA-A*02:02 (setting [8]), 16.9 µM; with HLA-A*02:01 [6] (setting [8]), 2180 nM; with HLA-A*02:06 [5] (setting [8]), 5000 nM.
Take NVTGFMEEEI: the IC50 with HLA-A*02:06 [2] was 17.6 µM; with HLA-A*02:03 (setting [7]) it was 5.14 µM; with HLA-A*02:02 (setting [7]) it was 10.3 µM; with HLA-A*02:01 [6] (setting [7]) it was 4400 nM; with HLA-A*68:02 [3] it was 1480 nM.
On to PIPYSRVNHA, for which the IC50 with HLA-A*02:01 [1] amounted to 54 µM; with HLA-A*02:03 (setting [7]) it was 15.3 µM; in the experiment with HLA-A*68:02 [4] (setting [7]) it was 48.3 µM; with HLA-A*02:02 (setting [7]), 11.7 µM; in the experiment with HLA-A*02:06 [5] (setting [7]) it was 1450 nM.
The like results for PVVYHDDDNT were, in that order, 11.7 µM, 26.8 µM, 11.4 µM, 9.14 µM and 1360 nM.
The corresponding values for RQLTSNVDV are 8.98 µM, 9.76 µM, 18.8 µM, 50.8 µM and 170 nM.
The like results for RQQLEDIFM were, in that order, 10 µM, 26.9 µM, at least 70 µM, 5.73 µM and 944 nM.
For the sequence TTNNLLEQLI, the IC50 in the experiment with HLA-A*02:06 [2] is 13.1 µM; with HLA-A*02:03 (setting [7]), 21 µM; in the experiment with HLA-A*02:02 (setting [7]), 8.88 µM; with HLA-A*02:01 [6] (setting [7]), 4930 nM; in the experiment with HLA-A*68:02 [3], 73 nM.
Regarding VILPDKIDGL, the IC50 was 10.8 µM with HLA-A*02:03 (setting [7]); at least 70 µM with HLA-A*68:02 [4] (setting [7]); 8.09 µM with HLA-A*02:02 (setting [7]); 1780 nM with HLA-A*02:01 [6] (setting [7]); 240 nM with HLA-A*02:06 [5] (setting [7]).
Take VIVPDIKLDA: the IC50 in the experiment with HLA-A*02:01 [1] is 22.6 µM; with HLA-A*02:03 (setting [7]), 21.4 µM; with HLA-A*68:02 [4] (setting [7]), at least 70 µM; with HLA-A*02:02 (setting [7]) it was 33.5 µM; in the experiment with HLA-A*02:06 [5] (setting [7]) it was 883 nM.
The corresponding values for VTPEYIKDL are 9.23 µM, at least 70 µM, at least 70 µM, 10.4 µM and 1760 nM.
The corresponding values for YVLFVKKML are 5.15 µM, 12 µM, 11.4 µM, 31.1 µM and 2540 nM.

One may read the IC50 as the concentration at which inhibition is half-maximal.
